Measurements as given in patent US9598497B2, “RSPO3 binding agents and uses thereof” (OncoMed Pharmaceuticals, Inc., priority 2012, dated 2017).
Substitutions are numbered along the chain they refer to.

B1: 131R002: anti-RSPO3 antibody from a mammalian cell antibody library; heavy chain variable region SEQ ID NO:15, light chain variable region SEQ ID NO:17 (antibody, V domains shown)
VH: QVQLQESGPELVKPGASVKISCKASGYTFTDYSIHWVKQNHGKSLDWIGYIYPSNGDSGYNQKFKNRATLTVDTSSSTAYLEVRRLTFEDSAVYYCATYFANYFDYWGQGTTLTVSSAST
VL: DIVLTQSPASLAVSLGQRATISCKASQSVDYDGDSYMNWYQQKPGQPPKLLIYAASNLESGIPARFSGSGSGTDFTLNIHPVEEEDAATYYCQQSNEDPLTFGAGTKLELKR
modifications: 131R002 Heavy chain variable region; 131R002/131R003 Light chain variable region
B2: h131R007: humanized 131R003 variant, IgG2; heavy chain variable region SEQ ID NO:44, light chain variable region SEQ ID NO:72 (antibody, V domains shown)
VH: QVQLVQSGAEVKKPGASVKVSCKASGYTFTDYSIHWVRQAPGQGLEWIGYIYPSNGDSGYNQKFKNRVTMTRDTSTSTAYMELSRLRSEDTAVYYCATYFANNFDYWGQGTTLTVSS
VL: B1 VL with S22T, N78T, H80N, E84A, A87V
modifications: Humanized 131R005/131R007/131R008/ 131R010/131R011 Heavy chain variable region; Humanized 131R005/131R007/131R008 Light chain variable region

Assays:
[1] = tested on: gene sets characteristic of normal stem cells or cancer stem cells; experiment: Microarray gene set enrichment analysis of treated OMP-LU102 tumors; format: in vivo, NOD-SCID mice; conditions: RNA from OMP-LU102 tumors after treatment, FIG. 11B
Method: RNA was prepared from tumors from each of the four experimental groups following the treatment. Gene expression was characterized by microarray analysis.

OMP-LU102 lung tumor = experiment: OMP-LU102 NSCLC xenograft growth; format: in vivo, NOD-SCID mice; conditions: antibody 25 mg/kg once a week, carboplatin 50 mg/kg once a week, FIG. 11A
Method: OMP-LU102 is a patient-derived non-small cell lung cancer (NSCLC) xenograft that was selected for testing based on a high level of RSPO3 expression in microarray data. OMP-LU102 lung tumor cells (1×10^5) were injected into NOD-SCID mice. […] Carboplatin was dosed at 50 mg/kg once a week.

OMP-LU25 lung tumor = OMP-LU25 lung tumor xenograft growth; format: in vivo, NOD/SCID mice; conditions: 25 mg/kg once a week intraperitoneal, vs control antibody, FIG. 7B
Method: In a study with a second lung tumor, dissociated OMP-LU25 lung tumor cells (5×10^4 cells) were injected into 6-8 week old NOD/SCID mice. Tumors were allowed to grow for 48 days until they reached an average volume of 110 mm^3. The mice were randomized (n=9 per group) and treated with anti-RSPO3 antibody 131R002 or a control antibody. […] Data are expressed as mean±S.E.M.
OMP-LU25 tumor cells (5×10^4) were injected into NOD-SCID mice. Tumors were allowed to grow for 33 days until they reached an average volume of 120 mm^3. Tumor-bearing mice were randomized into 4 groups (n=9 per group). Tumor-bearing mice were treated with either control antibody, anti-RSPO3 antibody 131R008, paclitaxel, or the combination of anti-RSPO3 antibody 131R008 and paclitaxel. Antibodies were dosed weekly at 20 mg/kg. Paclitaxel was dosed weekly at 15 mg/kg.

[2] = tested on: RSPO3-induced β-catenin signaling; experiment: TOPflash 6xTCF-luciferase reporter assay in HEK-293 cells with WNT3a and RSPO3; format: cell-based, human
Method: HEK-293 cells were transfected with a 6×TCF-luciferase reporter vector (TOPflash, Millipore, Billerica, Mass.). After 24-48 hrs, the transfected HEK-293 cells were incubated with a combination of WNT3a (5 ng/ml) and human RSPO3 (10 ng/ml, R&D BioSystems, Minneapolis, Minn.) in the presence of anti-RSPO3 antibodies 131R002 and 131R003. Antibodies 131R002 and 131R003 were added to the cells in 4-fold serial dilutions from 20 μg/ml to 0.02 μg/ml. As controls, cells were incubated with a combination of WNT3a and RSPO3, WNT3a only, RSPO3 only, or with no addition. The cells were incubated for 16 hours and luciferase activity was measured using Steady-Glo® Luciferase Assay System according to the manufacturer's instructions (Promega, Madison, Wis.).
HEK-293 cells were transfected with a 6×TCF-luciferase reporter vector (TOPflash, Millipore, Billerica, Mass.). After 24-48 hrs, the transfected HEK-293 cells were incubated with a combination of WNT3a and human RSPO3 in the presence of anti-RSPO3 antibodies 131R003, 131R003 CDR1 variant and 131R003 CDR3 variant. 131R003, 131R003 CDR1 variant, and 131R003 CDR3 variant were added to the cells in 5-fold serial dilutions from 20 μg/ml to 0.006 μg/ml. As controls, cells were incubated with a combination of WNT3a and RSPO3, WNT3a only, RSPO3 only, a control antibody, or with no addition. The cells were incubated for 16 hours and luciferase activity was measured using Steady-Glo® Luciferase Assay System according to the manufacturer's instructions (Promega, Madison, Wis.).
HEK-293 cells were transfected with a 6×TCF-luciferase reporter vector (TOPflash, Millipore, Billerica, Mass.). After 24-48 hrs, the transfected HEK-293 cells were incubated with a combination of WNT3a conditioned medium (5 ng/ml) and human RSPO3 (10 ng/ml, R&D BioSystems) in the presence of anti-RSPO3 antibodies 131R002, 131R006B, or 131R007. Antibodies 131R002, 131R006 or 131R007 were added to the cells in 5-fold serial dilutions from 20 μg/ml to 0.0064 μg/ml. As controls, cells were incubated with WNT3a conditioned medium alone, a combination of WNT3a conditioned medium and human RSPO3, or with no addition to cells. The cells were incubated for 16 hours and luciferase activity was measured using Steady-Glo® Luciferase Assay System according to the manufacturer's instructions (Promega, Madison, Wis.).
HEK-293 cells were transfected with a 6×TCF-luciferase reporter vector (TOPflash, Millipore, Billerica, Mass.). […] The cells were incubated for 16 hours and luciferase activity was measured using Steady-Glo® Luciferase Assay System according to the manufacturer's instructions (Promega, Madison, Wis.).

[3] = tested on: OMP-LU45 non-small cell lung tumors; experiment: OMP-LU45 lung tumor xenograft growth; format: in vivo, NOD/SCID mice; conditions: 25 mg/kg once a week intraperitoneal, vs control antibody, FIG. 7A
Method: In OMP-LU45 non-small cell lung tumors, it has been observed that CD201^+ cells are more tumorigenic than CD201^− cells. […] Dissociated and sorted OMP-LU45 CD44^+CD201^+ lung tumor cells (5×10^4 cells) were injected into 6-8 week old NOD/SCID mice. Tumors were allowed to grow for 38 days until they reached an average volume of 140 mm^3. The mice were randomized (n=10 per group) and treated with anti-RSPO3 antibody 131R002 or a control antibody. […] Data are expressed as mean±S.E.M.

human RSPO3 = molecular target: T1, human RSPO3 (Homo sapiens, UniProt Q9BXY4); experiment: Biacore 2000 affinity, antibody captured by anti-human IgG, RSPO3 injected (Example 10); format: binding; conditions: human RSPO3 300 nM to 37.5 nM over captured antibody, Table 4
T1 construct: purchased R&D Systems
T1 sequence (Q9BXY4 22-272): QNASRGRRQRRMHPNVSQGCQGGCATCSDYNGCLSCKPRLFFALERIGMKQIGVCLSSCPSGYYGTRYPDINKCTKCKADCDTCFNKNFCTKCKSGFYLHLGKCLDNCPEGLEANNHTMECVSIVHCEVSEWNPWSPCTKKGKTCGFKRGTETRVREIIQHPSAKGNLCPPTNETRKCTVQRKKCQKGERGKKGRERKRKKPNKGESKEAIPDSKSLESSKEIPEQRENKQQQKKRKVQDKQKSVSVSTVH
Method: The method used was different than described in Example 3. A goat anti-human IgG antibody was coupled to a carboxymethyl-dextran (CM5) SPR chip using standard amine-based chemistry (NHS/EDC) and blocked with ethanolamine. Antibodies (purified antibody or culture supernatant) were diluted to a concentration of 10 μg/ml in HBS-P-BSA (0.01M HEPES pH7.4, 0.15M NaCl, 0.005% v/v Polysorbate 20, 100 ug/ml BSA) and captured onto the chip via the anti-human IgG antibody. Human RSPO3 (R&D Systems) was serially diluted 2-fold from 300 nM to 37.5 nM in HBS-P-BSA and injected sequentially over the captured anti-RSPO3 antibodies. RSPO3 association and dissociation was measured at each concentration. After each antigen injection 5 μl of 100 mM H3P04 was injected to remove the antigen-antibody complex and a subsequent injection performed. Kinetic data were collected over time and were fit using the simultaneous global fit equation to yield affinity constants (KD values) for each antibody (Table 4).

binding of RSPO3 to LGR5 = molecular target: T2, binding of RSPO3 to LGR5 (Homo sapiens, UniProt Q9BXY4); experiment: FACS inhibition of RSPO3-biotin binding to LGR5-expressing HEK-293T cells; conditions: PE-streptavidin, flow cytometry, FIG. 9
T2 construct: expressed in transfected cells; host or cells: HEK-293T
T2 sequence (Q9BXY4 22-272): T1 sequence (Q9BXY4 22-272)
Method: HEK-293T cells were transfected with a cDNA expression vector that encoded the extracellular domain of human LGR5 (FLAG-LGR5-CD4TM-GFP). Transfected cells were incubated with recombinant RSPO3-biotin fusion protein in the presence of anti-RSPO3 antibodies 131R006B or 131R007. Cells were incubated without antibody as a control. Cells were washed in PBS and binding of RSPO3 to LGR5-expressing transfected cells was determined by addition of PE-conjugated streptavidin and analysis by flow cytometry.

Molecule | expression of gene sets characteristic of normal stem cells or cancer stem cells [1] | OMP-LU102 lung tumor growth (OMP-LU102 lung tumor) | OMP-LU25 lung tumor growth (OMP-LU25 lung tumor) | RSPO3-induced β-catenin signaling ([2]; WNT3a 5 ng/ml + RSPO3 10 ng/ml, antibody 20 to 0.02 μg/ml, FIG. 3) | OMP-LU45 lung tumor growth [3] | ability to inhibit β-catenin activity compared with 131R002 ([2]; WNT3a conditioned medium 5 ng/ml + human RSPO3 10 ng/ml, FIG. 8) | Kd (human RSPO3) [pM] | blocking binding of RSPO3 to LGR5-expressing cells (binding of RSPO3 to LGR5)
B1 | inhibited the expression of various gene sets characteristic of normal stem cells or cancer stem cells | inhibited OMP-LU102 lung tumor growth as a single agent | inhibited growth | reduced RSPO3-induced β-catenin signaling in a dose-dependent manner | inhibited growth |  |  | 
B2 |  |  |  |  |  | greater ability to inhibit β-catenin activity than antibody 131R002 | 654 | highly effective in blocking binding of RSPO3 to LGR5-expressing cells
